The results in this text go back to patent publication US7671062B2, “Modulators of chemokine receptor activity, crystalline forms and process” (Bristol-Myers Squibb Company, priority 2006, dated 2010).

Data set [1] has as its target CCR2 (Homo sapiens, UniProt P41597). Briefly: Cold competition ligand binding to hCCR2 using 125I-human MCP-1. The following applies: 125I-human MCP-1, n=8.
Data set [2] in a line: Moisture-sorption isotherm. It counts as physicochemical. The following applies: ca. 25% to ca. 75% RH at 25° C. As to the method:
A sample of the oily, gel-like (amorphous) free base of N-((1R,2S,5R)-5-(isopropyl(methyl)amino)-2-((S)-2-oxo-3-(6-(trifluoromethyl)quinazolin-4-ylamino)pyrrolidin-1-yl)cyclohexyl)acetamide (approx 0.5 g), extracted from a sample of the BSA salt, was suspended in heptane (approx 5 mL). The flask was scratched with a metal spatula, and the suspension was stirred vigorously by a magnetic stir bar at 25° C. A white slurry of crystalline particles was obtained after 24 hours of stirring. The slurry was filtered and the wet cake dried in vacuo (40° C.) to provide the pure N-2 form (confirmed by PXRD) of the free base. Form N-2 was characterized by an XRD pattern which matches the simulated pattern generated from the single crystal structure data. Form N-2 is the neat (no solvate molecules or no molecules of water or solvent) form of N-((1R,2S,5R)-5-(isopropyl(methyl)amino)-2-((S)-2-oxo-3-(6-(trifluoromethyl)quinazolin-4-ylamino)pyrrolidin-1-yl)cyclohexyl)acetamide, free base. Form N-2, was characterized by a DSC thermogram having a melt endotherm onset typically at ca. 158° C. to ca. 162° C. Form N-2 was characterized by a TGA thermal curve having a negligible weight loss at up to ca. 145° C. which agreed with the single crystal structure data. The weight loss corresponded to adventitious solvent.

Chain of CCR2 (P41597 whole entry): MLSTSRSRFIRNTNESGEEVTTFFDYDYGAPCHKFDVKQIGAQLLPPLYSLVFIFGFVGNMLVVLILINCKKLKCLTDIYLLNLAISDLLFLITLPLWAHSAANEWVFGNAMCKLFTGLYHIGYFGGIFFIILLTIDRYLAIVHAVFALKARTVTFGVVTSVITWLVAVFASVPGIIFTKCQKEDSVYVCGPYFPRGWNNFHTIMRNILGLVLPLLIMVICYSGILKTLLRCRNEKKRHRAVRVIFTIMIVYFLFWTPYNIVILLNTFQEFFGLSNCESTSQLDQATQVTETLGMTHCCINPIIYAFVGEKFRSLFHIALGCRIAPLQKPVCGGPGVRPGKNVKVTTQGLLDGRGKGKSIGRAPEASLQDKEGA

In general, Kd refers to the constant that tells how readily two partners part at equilibrium. In data set [1], “mouse MCP-1: mouse CCR2 ligand MCP-1 (chemokine)” showed a Kd of 910 pM.

On to `CC(=O)N[C@@H]1C[C@H](N(C)C(C)C)CC[C@@H]1N1CC[C@H](Nc2ncnc3ccc(C(F)(F)F)cc23)C1=O` [Form N-2, N-((1R,2S,5R)-5-(isopropyl(methyl)amino)-2-((S)-2-oxo-3-(6-(trifluoromethyl)quinazolin-4-ylamino)pyrrolidin-1-yl)cyclohexyl)acetamide], for which the “moisture-sorption isotherm weight gain” value in data set [2] turned out to be 0.15%.
